For one experiment, the target named is T1, IL-4Rα (CD124) (UniProt P24394 26-232).
T1 construct: interleukin-4 receptor alpha chain (CD124), recombinant protein bought from Sino Biological; No catalogue number is printed; also called IL-4 receptor; source: bought: Sino Biological
T1 sequence (looked up): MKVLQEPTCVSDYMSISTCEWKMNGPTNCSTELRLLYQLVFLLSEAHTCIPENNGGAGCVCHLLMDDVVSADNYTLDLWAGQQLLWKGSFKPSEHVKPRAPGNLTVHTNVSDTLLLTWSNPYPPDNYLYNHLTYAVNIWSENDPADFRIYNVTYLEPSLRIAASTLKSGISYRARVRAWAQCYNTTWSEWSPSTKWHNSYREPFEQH
Nature of the experiment: SPR; IL-4Rα immobilised by amine coupling on a carboxymethyl dextran chip (2000±400 RU); AP1 peptide 3.125 to 50 µM, [AP1-V12]6 125 nM to 1 µM, [V14]6 1 µM flowed for 3 min at 25 µL/min; 25°C; kinetic fits with Scrubber 2. The settings on record: both partners purified. For orientation: SPR reads the build-up and loss of mass on a sensor chip optically.

The target of experiment [1] is T2, IL-4 receptor on H226 and MDA-MB-231 cancer cells (human (endogenous in H226 and …, UniProt P24394 26-825)).
T2 construct: interleukin-4 receptor as expressed on the surface of human cancer cell lines; On cells the alpha chain may stand with other receptor chains; source: endogenous, on H226 and MDA-MB-231 cells
T2 sequence (looked up): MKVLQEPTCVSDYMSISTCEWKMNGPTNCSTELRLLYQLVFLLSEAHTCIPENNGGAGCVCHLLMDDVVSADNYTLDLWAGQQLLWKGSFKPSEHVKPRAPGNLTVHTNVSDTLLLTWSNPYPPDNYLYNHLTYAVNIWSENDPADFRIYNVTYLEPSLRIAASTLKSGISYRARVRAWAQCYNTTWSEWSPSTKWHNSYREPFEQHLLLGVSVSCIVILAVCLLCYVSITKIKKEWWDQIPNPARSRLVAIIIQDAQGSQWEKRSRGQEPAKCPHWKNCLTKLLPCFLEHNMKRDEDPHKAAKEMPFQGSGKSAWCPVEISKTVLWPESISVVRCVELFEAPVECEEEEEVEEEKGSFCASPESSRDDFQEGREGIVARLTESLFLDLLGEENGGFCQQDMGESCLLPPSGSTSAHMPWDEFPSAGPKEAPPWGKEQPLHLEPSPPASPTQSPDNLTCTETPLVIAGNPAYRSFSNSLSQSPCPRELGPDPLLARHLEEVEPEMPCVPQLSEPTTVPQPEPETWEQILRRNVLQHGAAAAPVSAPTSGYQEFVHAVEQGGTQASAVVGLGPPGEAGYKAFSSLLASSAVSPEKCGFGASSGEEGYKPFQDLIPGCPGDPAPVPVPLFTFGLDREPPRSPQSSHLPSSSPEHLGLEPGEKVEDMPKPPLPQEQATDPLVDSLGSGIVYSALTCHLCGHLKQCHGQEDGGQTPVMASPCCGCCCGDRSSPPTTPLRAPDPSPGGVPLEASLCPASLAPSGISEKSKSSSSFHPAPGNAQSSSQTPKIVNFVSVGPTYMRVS
Nature of the experiment: flow cytometry on cells; 10 µM Alexa 488-labelled polymer or peptide, 1 h at 4°C, on H226 and MDA-MB-231 cells (IL-4R highly expressed) after blocking with 2% BSA; H460 cells as IL-4R negative control. As to conditions: one partner purified. (Flow cytometry measures light scatter and fluorescence of single cells or particles in a stream.)

Usually koff stands for the first-order rate constant of dissociation. The kon is a measure of how fast the partners come together. A high value points to faster complex formation.

B1: [AP1-V12]6 polymer, SGPG[VGRKRLDRNG(VGVPG)12]6WPC (designed binder)
chain: SGPGVGRKRLDRNGVGVPGVGVPGVGVPGVGVPGVGVPGVGVPGVGVPGVGVPGVGVPGVGVPGVGVPGVGVPGVGRKRLDRNGVGVPGVGVPGVGVPGVGVPGVGVPGVGVPGVGVPGVGVPGVGVPGVGVPGVGVPGVGVPGVGRKRLDRNGVGVPGVGVPGVGVPGVGVPGVGVPGVGVPGVGVPGVGVPGVGVPGVGVPGVGVPGVGVPGVGRKRLDRNGVGVPGVGVPGVGVPGVGVPGVGVPGVGVPGVGVPGVGVPGVGVPGVGVPGVGVPGVGVPGVGRKRLDRNGVGVPGVGVPGVGVPGVGVPGVGVPGVGVPGVGVPGVGVPGVGVPGVGVPGVGVPGVGVPGVGRKRLDRNGVGVPGVGVPGVGVPGVGVPGVGVPGVGVPGVGVPGVGVPGVGVPGVGVPGVGVPGVGVPGWPC
notes: The vector's insert begins with an ATG; also called [AP1-V12]6 protein; targeted [AP1-V12]6 polymer; source: E. coli BL21 (DE3), purified (four rounds of inverse transition cycling)
In the experiment with IL-4Rα (CD124), B1 displayed a koff of 0.00125 s⁻¹ and a kon of 5810 M⁻¹ s⁻¹.

B2: Alexa 488-labeled [AP1-V12]6 (designed binder)
chain: SGPGVGRKRLDRNGVGVPGVGVPGVGVPGVGVPGVGVPGVGVPGVGVPGVGVPGVGVPGVGVPGVGVPGVGVPGVGRKRLDRNGVGVPGVGVPGVGVPGVGVPGVGVPGVGVPGVGVPGVGVPGVGVPGVGVPGVGVPGVGVPGVGRKRLDRNGVGVPGVGVPGVGVPGVGVPGVGVPGVGVPGVGVPGVGVPGVGVPGVGVPGVGVPGVGVPGVGRKRLDRNGVGVPGVGVPGVGVPGVGVPGVGVPGVGVPGVGVPGVGVPGVGVPGVGVPGVGVPGVGVPGVGRKRLDRNGVGVPGVGVPGVGVPGVGVPGVGVPGVGVPGVGVPGVGVPGVGVPGVGVPGVGVPGVGVPGVGRKRLDRNGVGVPGVGVPGVGVPGVGVPGVGVPGVGVPGVGVPGVGVPGVGVPGVGVPGVGVPGVGVPGWPC
modifications: Alexa Fluor 488-C5 maleimide on the C-terminal Cys residue
notes: as m1; The labelled form of m1, used on cells (flow cytometry, confocal microscopy); also called Alexa-labeled [AP1-V12]6; targeted [AP1-V12]6 polymer; source: E. coli BL21 (DE3), purified (four rounds of inverse transition cycling), then labelled
B2: in experiment [1], the “fold cell attachment, H226 cells over H460 cells” value was 5.9 ± 1.6 fold and the “fold cell attachment, MDA-MB-231 cells over H460 cells” value was found to be 5.6 ± 1.3 fold.

B3: AP1 peptide (peptide)
peptide: CRKRLDRN
notes: peptide found earlier by phage display screening, termed AP1; also called free AP1 peptide
As to B3, in the experiment with IL-4Rα (CD124), the dissociation rate constant (koff) was 0.17 s⁻¹ and the kon was determined as 35 M⁻¹ s⁻¹.
